Measured values reported in article PMC12783888.
* marks the point of attachment. AMC = Cc1cc(=O)oc2cc(N*)ccc12

Legend:
[1] = biological target: T1, SplA wildtype (S. aureus strain USA300 variant) (Staphylococcus aureus strain USA300) (UniProt Q2FFS9)
T1 sequence: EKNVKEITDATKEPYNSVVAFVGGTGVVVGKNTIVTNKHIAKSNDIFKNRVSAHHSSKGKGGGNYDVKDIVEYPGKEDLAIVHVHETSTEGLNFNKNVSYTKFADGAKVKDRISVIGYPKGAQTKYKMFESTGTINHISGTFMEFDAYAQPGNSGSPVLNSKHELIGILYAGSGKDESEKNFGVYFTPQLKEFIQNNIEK

[2] = biological target: SplA allelic variant A6 (Staphylococcus aureus) (UniProt Q2FFS9)
[3] = biological target: SplA allelic variant A3 (Staphylococcus aureus) (UniProt Q2FFS9)
[4] = biological target: SplA allelic variant A1 (Staphylococcus aureus) (UniProt Q2FFS9)
[5] = biological target: SplA allelic variant A4 (Staphylococcus aureus) (UniProt Q2FFS9)
[6] = biological target: SplA allelic variant A5 (Staphylococcus aureus) (UniProt Q2FFS9)

Ac-Tyr-Leu-Tyr-{AMC}
KM of Michaelis-Menten kinetics, cleavage of the fluorogenic substrate (AMC release) [1]: 49 µM
KM of Michaelis-Menten kinetics, cleavage of the fluorogenic substrate (AMC release) [2]: 109 µM
KM of Michaelis-Menten kinetics, cleavage of the fluorogenic substrate (AMC release) [3]: 39 µM
KM of Michaelis-Menten kinetics, cleavage of the fluorogenic substrate (AMC release) [4]: 54 µM
KM of Michaelis-Menten kinetics, cleavage of the fluorogenic substrate (AMC release) [5]: 65 µM
KM of Michaelis-Menten kinetics, cleavage of the fluorogenic substrate (AMC release) [6]: 35 µM

B1: Ac-VWLY-AMC (peptide)
peptide: Ac-VWLY-{AMC}
SMILES: CC(=O)N[C@H](C(=O)N[C@@H](Cc1c[nH]c2ccccc12)C(=O)N[C@@H](CC(C)C)C(=O)N[C@@H](Cc1ccc(O)cc1)C(=O)Nc1ccc2c(C)cc(=O)oc2c1)C(C)C
KM of Michaelis-Menten kinetics, cleavage of the fluorogenic substrate (AMC release) [1]: 11 µM
KM of Michaelis-Menten kinetics, cleavage of the fluorogenic substrate (AMC release) [2]: 19 µM
KM of Michaelis-Menten kinetics, cleavage of the fluorogenic substrate (AMC release) [3]: 11 µM
KM of Michaelis-Menten kinetics, cleavage of the fluorogenic substrate (AMC release) [4]: 26 µM
KM of Michaelis-Menten kinetics, cleavage of the fluorogenic substrate (AMC release) [5]: 23 µM
KM of Michaelis-Menten kinetics, cleavage of the fluorogenic substrate (AMC release) [6]: 13 µM
